Residue numbers refer to the chain shown, from its start. Numbers in names are those of the source. Each block holds one molecule with its values, some of them ahead of it.
What was measured:
[1] = biological target: huCTLA4 (Homo sapiens, UniProt P16410); test: Flow binding to CHO cells stably expressing CTLA4; design: huCTLA4 and huPD-L1, full-length mammalian surface expression constructs were generated; expressed in transfected cells; host or cells: CHO cells, lentiviral transduction, sorted to >98% purity; conditions: for CTLA4 MFI at 33.3 nM: CHO cells stably expressing CTLA4; for CTLA4 Fold change to WT CD80: MFI ratio to WT CD80 ECD-Fc (R&D) at 33.3 nM
Chain of huCTLA4 (P16410 36-223): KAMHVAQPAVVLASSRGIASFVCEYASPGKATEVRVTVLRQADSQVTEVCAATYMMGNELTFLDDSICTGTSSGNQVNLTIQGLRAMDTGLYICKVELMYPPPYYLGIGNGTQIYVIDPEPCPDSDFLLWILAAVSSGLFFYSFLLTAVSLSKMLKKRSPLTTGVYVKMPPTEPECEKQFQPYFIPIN
Outline: (§1)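 Binding EC50 and PE mean fluorescence intensity derived by flow cytometry using PE-labelled anti-human Fc secondary. Target cells were CTLA4- or PD-L1-transfected CHO lines and CD28-expressing Jurkat/IL2 reporter cells, stained with fusion proteins on ice for 45 min following BSA blocking.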

[2] = biological target: T1, CD28 (Homo sapiens, UniProt P10747); test: Flow binding to Jurkat/IL2 reporter cells (CD28); design: host or cells: Jurkat cells expressing an IL-2-luciferase reporter; conditions: for CD28 Fold change to WT CD80: MFI ratio to WT CD80 ECD-Fc (R&D) at 33.3 nM
Outline: as §1

[3] = biological target: huPD-L1 (Homo sapiens, UniProt Q9NZQ7); test: Flow binding to CHO cells stably expressing PD-L1; design: huCTLA4 and huPD-L1, full-length mammalian surface expression constructs were generated; expressed in transfected cells; host or cells: CHO cells, lentiviral transduction, sorted to >98% purity; conditions: for PD-L1 MFI at 33.3 nM: CHO cells stably expressing PD-L1; for PD-L1 Fold change to WT CD80: MFI ratio to WT CD80 ECD-Fc (R&D) at 33.3 nM; for Ratio of PDL1:CD28: binding to PD-L1 compared to binding to CD28
Chain of huPD-L1 (Q9NZQ7 19-290): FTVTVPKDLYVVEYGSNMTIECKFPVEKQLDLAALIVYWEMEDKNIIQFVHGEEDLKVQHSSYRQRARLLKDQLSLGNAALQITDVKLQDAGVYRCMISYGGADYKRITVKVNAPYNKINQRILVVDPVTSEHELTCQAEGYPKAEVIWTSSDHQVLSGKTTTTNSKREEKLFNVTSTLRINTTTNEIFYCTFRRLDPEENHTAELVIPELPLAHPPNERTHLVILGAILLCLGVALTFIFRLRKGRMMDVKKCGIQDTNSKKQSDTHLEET
Outline: as §1

[4] = biological target: T1, CD28; test: Jurkat/IL2 + K562/OKT3 (no PD-L1) reporter assay of CD80 ECD-Fc (effector); format: cell-based; design: host or cells: Jurkat cells expressing an IL-2-luciferase reporter; conditions: aAPC without PD-L1
Procedure: The bioactivity of the generated molecules also was assessed using a Jurkat report assay as described in Examples 9 to assess CD28 costimulation of the molecules.

[5] = biological target: T1, CD28; test: Jurkat/IL2 + K562/OKT3/PD-L1 reporter assay; format: cell-based; design: host or cells: Jurkat cells expressing an IL-2-luciferase reporter; conditions: Table E8; K562/OKT3/PD-L1 aAPC; 50 nM
[6] = biological target: T1, CD28; test: Jurkat/IL2 + CHO/OKT3 +/- PD-L1 reporter assay: PD-L1-dependent CD28 costimulation; format: cell-based; design: host or cells: Jurkat cells expressing an IL-2-luciferase reporter; conditions: for PD-L1-Dependent CD28 Costimulation, +PD-L1, 0.6 nM / PD-L1-Dependent CD28 Costimulation, +PD-L1, 50 nM: CHO/OKT3/PD-L1 aAPC; for PD-L1-Dependent CD28 Costimulation, +PD-L1, 0.6 nM / PD-L1-Dependent CD28 Costimulation, +PD-L1, 50 nM / PD-L1-Dependent CD28 Costimulation, No PD-L1, 50 nM / PD-L1-Dependent CD28 Costimulation, No PD-L1, […]: luciferase signal; for PD-L1-Dependent CD28 Costimulation, No PD-L1, 50 nM / PD-L1-Dependent CD28 Costimulation, No PD-L1, […]: CHO/OKT3 aAPC
Outline: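 Readout is relative luminescence from lysed cocultures: test protein given 15 min at room temperature to Jurkat cells before adding CHO artificial APCs displaying OKT3 alone or OKT3 plus PD-L1, then 5 h at 37 °C, 5% CO2.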

[7] = biological target: T1, CD28; test: Jurkat/IL2 reporter assay: blockade of CD28 costimulation (plate-bound anti-CD3/CD86-Fc); format: cell-based; design: host or cells: Jurkat cells expressing an IL-2-luciferase reporter; conditions: Table E5; protein diluted to 40 nM before mixing with cells; 5 hours
Outline: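 Readout is Bio-Glo luminescence after a 5 h, 37 °C stimulation of IL-2-luciferase Jurkat reporter cells on wells precoated (overnight, 4 °C) with anti-CD3 antibody and CD86-Fc. Cells were first mixed with CD80-Fc test proteins for 15 min at room temperature.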

[8] = biological target: T1, CD28; test: CD28 costimulation via Fc receptor or PD-L1 dependent cross-linking (Jurkat/IL2 + K562/OKT3 +/- PD-L1); format: cell-based; design: host or cells: Jurkat cells expressing an IL-2-luciferase reporter; conditions: K562/0KT3 aAPC, luciferase signal
Procedure: In a further experiment, CD28 costimulation was assessed for variant CD80-IgV-Fc fusion proteins, where the Fc was an IgG1 Fc (e.g. SEQ ID NO:1517) capable of mediating effector activity via binding to Fc receptors (FcR). The experiment was carried out as described in part A above, except CD32-expressing K562 cells stably transduced with OKT3 (K562/OKT3) or OKT3 and PD-L1 (K562/OKT3/PD-L1) were used instead of the CHO/OKT3 and CHO/OKT3/PD-L1 cells, and the results are depicted in Table E9.

[9] = Table E4, 33.3 nM variant CD80 IgV-Fc

B2: R29H/E35D/M43V/M47I/I49V (protein, UniProt P33681 35-288, looked up, variant R29H E35D M43V M47I I49V)
T-lymphocyte activation …: VIHVTKEVKEVATLSCGHNVSVEELAQTHIYWQKDKKMVLTMVSGDINVWPEYKNRTIFDITNNLSIVILALRPSDEGTYECVVLKYEKDAFKREHLAEVTLSVKADFPTPSISDFEIPTSNIRRIICSTSGGFPEPHLSWLENGEELNAINTTVSQDPETELYAVSSKLDFNMTTNHSFMCLIKYGHLRVNQTFNWNTTKQEHFPDNLLPSWAITLISVNGIFVICCLTYCFAPRCRERRRNERLRRESVRPV
Fold Increase over WT CD80-IgV-Fe [5]: 1.1
Relative Luciferase Units (RLU), CD80-Fe Cone 50 nM [5]: 227 RLU
CTLA4 MFI at 33.3 nM [1, 9]: 4694
CTLA4 Fold change to WT CD80 ([1]; Table E4): 0.03
CD28 MFI at 33.3 nM ([2]; Table E4, Jurkat cells (CD28)): 336
CD28 Fold change to WT CD80 ([2]; Table E4): 0.02
PD-L1 MFI at 33.3 nM ([3]; Table E4): 1590
PD-L1 Fold change to WT CD80 ([3]; Table E4): 0.13
Ratio of PDL1:CD28 ([3]; Table E4): 5

B3: E35D/D46E/M47V/N63D/L85Q (protein, UniProt P33681 35-288, looked up, variant E35D D46E M47V N63D L85Q)
T-lymphocyte activation …: B2 T-lymphocyte activation … with H29R, V43M, D46E, I47V, V49I, N63D, L85Q
Fold Increase over WT CD80-IgV-Fe [5]: 6.7
Relative Luciferase Units (RLU), CD80-Fe Cone 50 nM [5]: 1381 RLU
CTLA4 MFI at 33.3 nM [1, 9]: 274320
CTLA4 Fold change to WT CD80 ([1]; Table E4): 1.74
CD28 MFI at 33.3 nM ([2]; Table E4, Jurkat cells (CD28)): 1331
CD28 Fold change to WT CD80 ([2]; Table E4): 0.07
PD-L1 MFI at 33.3 nM ([3]; Table E4): 69780
PD-L1 Fold change to WT CD80 ([3]; Table E4): 5.88
Ratio of PDL1:CD28 ([3]; Table E4): 52

B4: E35D/T41S/M43V/M47I/L70M/A71G (protein, UniProt P33681 35-288, looked up, variant E35D T41S M43V M47I L70M A71G)
T-lymphocyte activation …: B2 T-lymphocyte activation … with H29R, T41S, V49I, L70M, A71G
modifications: Fc fusion
Fold Increase over WT CD80-IgV-Fe [5]: 8.1
Relative Luciferase Units (RLU), CD80-Fe Cone 50 nM [5]: 1672 RLU
CTLA4 MFI at 33.3 nM [1, 9]: 249456
CTLA4 Fold change to WT CD80 ([1]; Table E4): 1.59
CD28 MFI at 33.3 nM ([2]; Table E4, Jurkat cells (CD28)): 2698
CD28 Fold change to WT CD80 ([2]; Table E4): 0.15
PD-L1 MFI at 33.3 nM ([3]; Table E4): 12978
PD-L1 Fold change to WT CD80 ([3]; Table E4): 1.09
Ratio of PDL1:CD28 ([3]; Table E4): 5

B5: E35D/M47I/L85Q/D90G (protein, UniProt P33681 35-288, looked up, variant E35D M47I L85Q D90G)
T-lymphocyte activation …: B2 T-lymphocyte activation … with H29R, V43M, V49I, L85Q, D90G
Fold Increase over WT CD80-IgV-Fe [5]: 7.0
Relative Luciferase Units (RLU), CD80-Fe Cone 50 nM [5]: 1438 RLU
CTLA4 MFI at 33.3 nM [1, 9]: 247703
CTLA4 Fold change to WT CD80 ([1]; Table E4): 1.57
CD28 MFI at 33.3 nM ([2]; Table E4, Jurkat cells (CD28)): 4095
CD28 Fold change to WT CD80 ([2]; Table E4): 0.23
PD-L1 MFI at 33.3 nM ([3]; Table E4): 35710
PD-L1 Fold change to WT CD80 ([3]; Table E4): 3.01
Ratio of PDL1:CD28 ([3]; Table E4): 9

B7: E23G/A26S/E35D/T62N/A71D/L72V/L85M: variant CD80 IgV-Fc, IgV SEQ ID NO:216 (protein)
chain: VIHVTKEVKEVATLSCGHNVSVGELSQTRIYWQKDKKMVLTMMSGDMNIWPEYKNRTIFDINNNLSIVILDVRPSDEGTYECVVMKYEKDAFKREHLAEVTLSVKAD
PD-L1-Dependent CD28 Costimulation, +PD-L1, 0.6 nM [6]: 524
PD-L1-Dependent CD28 Costimulation, +PD-L1, 50 nM [6]: 695
PD-L1-Dependent CD28 Costimulation, No PD-L1, 50 nM [6]: 606
PD-L1-Dependent CD28 Costimulation, No PD-L1, […] [6]: 566
Average Relative Luminescence Units [7]: 2067 Relative Luminescence Units
CD28 costimulation, FcR Dependent Cross-Linking (No PD-L1), 0.6 nM [8]: 2022
CD28 costimulation, FcR Dependent Cross-Linking (No PD-L1), 50 nM [8]: 7855

B8: E35D/D46V/L85Q: variant CD80 IgV-Fc, IgV SEQ ID NO:203 (protein)
chain: B7 chain with G23E, S26A, D46V, N62T, D71A, V72L, M85Q
PD-L1-Dependent CD28 Costimulation, +PD-L1, 0.6 nM [6]: 611
PD-L1-Dependent CD28 Costimulation, +PD-L1, 50 nM [6]: 2224
PD-L1-Dependent CD28 Costimulation, No PD-L1, 50 nM [6]: 720
PD-L1-Dependent CD28 Costimulation, No PD-L1, […] [6]: 511
Relative Luciferase Units (RLU), CD80 Conc 5.0 nM ([6]; Table E21, Jurkat/IL2 + CHO/OKT3/PD-L1, CD80 Conc 5.0 nM): 410 RLU
CTLA4 MFI at 33.3 nM ([1]; Table E19, 33.3 nM): 48005
CD28 MFI at 33.3 nM ([2]; Table E19, Jurkats (CD28)): 196
PD-L1 MFI at 33.3 nM ([3]; Table E19): 4039
Average Relative Luminescence Units [7]: 3230 Relative Luminescence Units
CD28 costimulation, FcR Dependent Cross-Linking (No PD-L1), 0.6 nM [8]: 1880
CD28 costimulation, FcR Dependent Cross-Linking (No PD-L1), 50 nM [8]: 7015

Further lines, results first:

CHO/CTLA4 MFI at 66.7 nM ([1]; 66.7 nM): 24801
EC50 ([1]; flow binding): 4.3 nM
Jurkat/CD28 MFI at 66.7 nM ([2]; 66.7 nM): 720
EC50 ([2]; flow binding, read-out: Jurkat/CD28 EC50): > 200 nM
CHO/PD-L1 MFI at 66.7 nM ([3]; 66.7 nM): 107
Relative Luminescence at 98 pM ([4]; 98 pM): 1098 RLU
Relative Luminescence at 391 pM ([4]; 391 pM): 1119 RLU
Relative Luminescence at 1563 pM ([4]; 1563 pM): 1288 RLU
Relative Luminescence at 6250 pM ([4]; 6250 pM): 1761 RLU
Relative Luminescence at 25000 pM ([4]; 25000 pM): 2209 RLU
Relative Luminescence at 100000 pM ([4]; 100000 pM): 2750 RLU
B1: CD80 (A91G/I118V/T120S/T130A) ECD-Fc: variant full CD80 ECD fused to effector human IgG1 Fc (SEQ ID NO:1527) (protein)
chain: VIHVTKEVKEVATLSCGHNVSVEELAQTRIYWQKEKKMVLTMMSGDMNIWPEYKNRTIFDITNNLSIVILALRPSDEGTYECVVLKYEKDGFKREHLAEVTLSVKADFPTPSISDFEVPSSNIRRIICSASGGFPEPHLSWLENGEELNAINTTVSQDPETELYAVSSKLDFNMTTNHSFMCLIKYGHLRVNQTFNWNTTKQEHFPDN

PD-L1-Dependent CD28 Costimulation, +PD-L1, 0.6 nM [6]: 524
PD-L1-Dependent CD28 Costimulation, +PD-L1, 50 nM [6]: 755
PD-L1-Dependent CD28 Costimulation, No PD-L1, 50 nM [6]: 644
PD-L1-Dependent CD28 Costimulation, No PD-L1, […] [6]: 466
Average Relative Luminescence Units [7]: 2939 Relative Luminescence Units
CD28 costimulation, FcR Dependent Cross-Linking (No PD-L1), 0.6 nM [8]: 1821
CD28 costimulation, FcR Dependent Cross-Linking (No PD-L1), 50 nM [8]: 7109
B6: A71D/L72V/E95K: variant CD80 IgV-Fc, IgV SEQ ID NO:192 (protein)
chain: B7 chain with G23E, S26A, D35E, N62T, M85L, E95K
